Molecular target: Protein Phosphatase Methylesterase-1 (PME-1), endogenous protein of NIH3T3 cells (mouse) (UniProt Q8BVQ5)
Experiment: anti-HA co-immunoprecipitation, silver-stained 2D gel

Chain of Protein Phosphatase Methylesterase-1 (PME-1), endogenous protein of NIH3T3 cells (mouse) (Q8BVQ5 whole entry): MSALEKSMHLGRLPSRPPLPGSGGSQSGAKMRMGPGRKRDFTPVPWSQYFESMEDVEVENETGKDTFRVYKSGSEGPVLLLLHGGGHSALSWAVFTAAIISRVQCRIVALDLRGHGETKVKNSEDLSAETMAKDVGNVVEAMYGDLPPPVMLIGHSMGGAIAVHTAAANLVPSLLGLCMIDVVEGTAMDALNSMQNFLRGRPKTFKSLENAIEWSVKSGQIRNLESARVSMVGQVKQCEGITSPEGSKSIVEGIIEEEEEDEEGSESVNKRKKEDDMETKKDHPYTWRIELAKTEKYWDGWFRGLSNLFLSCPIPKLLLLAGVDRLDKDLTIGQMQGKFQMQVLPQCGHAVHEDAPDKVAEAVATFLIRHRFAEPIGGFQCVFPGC

## HA-tagged PP2A C subunit mutant H118Q (from UniProt P67775 1-309) (enzyme)
  stoichiometry of PME-1 to the A and C subunits in the immunoprecipitate: 1

Source: patent publication US6528295
